# Target: YFP-PP1γ (UniProt P36873)
# Test: live-cell FRET at kinetochores (FRET/CFP intensity ratio)
# Settings: HeLa cells, MG132 for 1 hr before imaging, 37°C; Cells = 6, Area KT = 42 (4A) and 50 (WT); parent: est. 1.6; read off a plot
# UniProt P36873, sequence (P36873 whole entry): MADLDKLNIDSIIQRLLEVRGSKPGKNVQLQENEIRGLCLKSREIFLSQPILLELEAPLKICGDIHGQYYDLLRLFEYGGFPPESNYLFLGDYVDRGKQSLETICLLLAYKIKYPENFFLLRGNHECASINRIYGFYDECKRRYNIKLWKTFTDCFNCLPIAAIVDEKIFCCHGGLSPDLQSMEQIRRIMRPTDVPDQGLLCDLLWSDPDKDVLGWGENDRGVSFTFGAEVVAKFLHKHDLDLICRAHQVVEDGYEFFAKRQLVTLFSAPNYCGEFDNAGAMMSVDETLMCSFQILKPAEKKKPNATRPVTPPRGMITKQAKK
substance,measurement,value
Astrin-CFP (WT) (from UniProt Q96R06) 4A (RVMF motif changed to AAAA),response,1.2

# Source: publication PMC6930079
